According to IntAct's records for PubMed 15475008:

B1: Calcium and integrin-binding protein 1 (Homo sapiens), Q99828-1 (parent)
chain: MGGSGSRLSKELLAEYQDLTFLTKQEILLAHRRFCELLPQEQRSVESSLRAQVPFEQILSLPELKANPFKERICRVFSTSPAKDSLSFEDFLDLLSVFSDTATPDIKSHYAFRIFDFDDDGTLNREDLSRLVNCLTGEGEDTRLSASEMKQLIDNILEESDIDRDGTINLSEFQHVISRSPDFASSFKIVL

Tests used:
Settings in all cases: with psn2_human PSEN2, P49810
psn2_human PSEN2, P49810 [1] = variants of: B1
psn2_human PSEN2, P49810 [2] = variants of: B1; remark: listed apart in the source
psn2_human PSEN2, P49810 [3] = variants of: B1; remark: listed apart in the source

## MGGSGSRLSKELLAEYQDLTFLTKQEILLAHRRFCELLPQEQRSVESSLRAQVPFEQILSLPELKANPFKERICRVFSTSPAKDSLSFEDFLDLLSVFSDTATPDIKSHYAFRIFDFDDDGTLNRENLSRLVNCLTGEGEDTRLSASEMKQLIDNILEESDIDRDGTINLSQFQHVISRSPDFASSFKIVL
psn2_human PSEN2, P49810 [1]
  effect of a mutation on the interaction: disrupting interaction strength
psn2_human PSEN2, P49810 [2]
  effect of a mutation on the interaction: decreasing interaction

## MGGSGSRLSKELLAEYQDLTFLTKQEILLAHRRFCELLPQEQRSVESSLRAQVPFEQILSLPELKANPFKERICRVFSTSPAKDSLSFEDFLDLLSVFSDTATPDIKSHYAFRIFDFDDDGTLNREDLSRLVNCLTGEGEDTRLSASEMKQLIDNILEESDIDRDGTINLSQFQHVISRSPDFASSFKIVL
psn2_human PSEN2, P49810 [1]
  effect of a mutation on the interaction: disrupting interaction strength
psn2_human PSEN2, P49810 [3]
  effect of a mutation on the interaction: decreasing interaction strength
psn2_human PSEN2, P49810 [2]
  effect of a mutation on the interaction: decreasing interaction

## MGGSGSRLSKELLAEYQDLTFLTKQEILLAHRRFCELLPQEQRSVESSLRAQVPFEQILSLPELKANPFKERICRVFSTSPAKDSLSFEDFLDLLSVFSDTATPDIKSHYAFRIFDFDDDGTLNRENLSRLVNCLTGEGEDTRLSASEMKQLIDNILEESDIDRDGTINLSEFQHVISRSPDFASSFKIVL
psn2_human PSEN2, P49810 [1]
  effect of a mutation on the interaction: disrupting interaction strength
psn2_human PSEN2, P49810 [2]
  effect of a mutation on the interaction: decreasing interaction
